Test results from the supplement of paper PMC7877785.
± gives the uncertainty stated by the source.

Assay: self-splicing fitness, log relative to wild type (ln ratio); higher = more splicing; Tetrahymena group I intron in knt gene, E. coli kanamycin selection, DiMSum; sequences stand for … in CUCUCU…GGAGGGAAAAGUUAUCAGGCAUGCACCUGGUAGCUAGUCUUUAAACCAAUAGAUUGCAUCGGUUUAAAAGGCAAGACCGUCAAAUUGCGGGAAAGGGGUCAACAGCCGUUCAGUACCAAGUCUCAGGGGAAACUUUGAGAUGGCCUUGCAAAGGGUAUGGUAAUAAGCUGACGGACAUGGUCCUAACCACGCAGCCAAGUCCUAAGUCAACAGAUCUUCUGUUGAUAUGGAUGCAGUUCACAGACUAAAUGUCGGUCGGGGAAGAUGUAUUCUUCUCAUAAGAUAUAGUCGGACCUCUCCUUAAUGGGAGCUAGCGGAUGAAGUGAUGCAACACUGGAGCCGCUGGGAACUAAUUUGUAUGCGAAAGUAUAUUGAUUAGUUUUGGAGUACUCGUGGUCG
How it was run: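 Pooled colonies went to amplicon sequencing on an Illumina HiSeq 2500 after six replicate transformations. The plates were LB agar with 100 μg/mL carbenicillin, 50 μM IPTG and 0.2% rhamnose, with or without 25 μg/mL kanamycin, incubated overnight at 37°C or 30°C. The E. coli BL21(DE3) library had all eight P1ex-region intron nucleotides randomised, the intron placed in the knt kanamycin-resistance gene on pET-22b(+). DiMSum fitness is the error-weighted combination of replicate fold changes, kanamycin against none, normalised to wild type.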

Row | Sequence | self-splicing fitness (ln) (30 °C) | self-splicing fitness (ln) (37 °C)
1 | CUUAAGCAAUAUUACGAUCU | -3.14 ± 0.37 | -1.48 ± 0.31
2 | CUUAAGCAAUAUUACGCAGA | -3.41 ± 0.36 | -1.93 ± 0.24
3 | CUUAAGCAAUAUUACGCUCU | -2.77 ± 0.13 | -2.81 ± 0.32
4 | CUUAAGCAAUAUUACGGAGC |  | -4.02 ± 0.39
5 | CUUAAGCAAUAUUACGGCAC | -3.43 ± 0.43 | 
6 | CUUAAGCAAUAUUACGGCGC | -3.46 ± 0.37 | -2.7 ± 0.28
7 | CUUAAGCAAUAUUACGGUCC | -1.36 ± 0.29 | 
8 | CUUCAGCAAUAUUACGAACG | -0.295 ± 0.062 | 0.406 ± 0.093
9 | CUUCAGCAAUAUUACGACAC |  | -1.11 ± 0.24
10 | CUUCAGCAAUAUUACGACUU | -4.07 ± 0.29 | -2.34 ± 0.21
11 | CUUCAGCAAUAUUACGAGAU | -3.35 ± 0.23 | -2.43 ± 0.26
12 | CUUCAGCAAUAUUACGAUUU | -3.34 ± 0.21 | -2.33 ± 0.18
13 | CUUCAGCAAUAUUACGCACC | -3.9 ± 0.47 | -2.61 ± 0.35
14 | CUUCAGCAAUAUUACGCAUA | -4.27 ± 0.37 | -1.82 ± 0.17
15 | CUUCAGCAAUAUUACGCCGU | -3.17 ± 0.35 | -2.05 ± 0.29
16 | CUUCAGCAAUAUUACGCGUC | -2.6 ± 0.23 | -0.821 ± 0.14
17 | CUUCAGCAAUAUUACGGGCA | -3.21 ± 0.4 | -2.64 ± 0.27
18 | CUUCAGCAAUAUUACGGUAC | -3.21 ± 0.35 | -2.02 ± 0.33
19 | CUUCAGCAAUAUUACGGUAU | -3.47 ± 0.35 | -2 ± 0.2
20 | CUUCAGCAAUAUUACGGUUU | -3.8 ± 0.15 | -2.55 ± 0.13
21 | CUUCAGCAAUAUUACGUAUC | -4.15 ± 0.27 | -2.48 ± 0.23
22 | CUUCAGCAAUAUUACGUCGC | -2.22 ± 0.36 | -2.3 ± 0.42
23 | CUUCAGCAAUAUUACGUGAU | -3.65 ± 0.12 | -2.55 ± 0.12
24 | CUUGAGCAAUAUUACGAACG | -0.921 ± 0.13 | 0.12 ± 0.18
25 | CUUGAGCAAUAUUACGAAGG | -1.97 ± 0.2 | 
26 | CUUGAGCAAUAUUACGAAUU | -3.53 ± 0.33 | -3.19 ± 0.47

Row | Sequence | self-splicing fitness (ln) (30 °C) | self-splicing fitness (ln) (37 °C)
27 | CUUGAGCAAUAUUACGACGA | -2.83 ± 0.42 | -2.51 ± 0.45
28 | CUUGAGCAAUAUUACGACGU | -3.62 ± 0.35 | -2.25 ± 0.21
29 | CUUGAGCAAUAUUACGAGCC | -1.39 ± 0.33 | 
30 | CUUGAGCAAUAUUACGCAUU |  | -2.02 ± 0.35
31 | CUUGAGCAAUAUUACGCCAC | -2.82 ± 0.49 | 
32 | CUUGAGCAAUAUUACGCCUA |  | -3.13 ± 0.44
33 | CUUGAGCAAUAUUACGCGCA | -2.81 ± 0.27 | -2.23 ± 0.33
34 | CUUGAGCAAUAUUACGCGCU | -2.45 ± 0.29 | -1.22 ± 0.39
35 | CUUGAGCAAUAUUACGGAGC |  | -1.42 ± 0.29
36 | CUUGAGCAAUAUUACGGAGG | -2.13 ± 0.19 | -1.67 ± 0.16
37 | CUUGAGCAAUAUUACGGAUG | -1.75 ± 0.11 | -0.176 ± 0.11
38 | CUUGAGCAAUAUUACGGCAG | -1.01 ± 0.11 | -0.0287 ± 0.15
39 | CUUGAGCAAUAUUACGGCCU | -3.92 ± 0.37 | 
40 | CUUGAGCAAUAUUACGGCGC | -3.72 ± 0.43 | -1.55 ± 0.41
41 | CUUGAGCAAUAUUACGGCGG | -1.13 ± 0.1 | -0.746 ± 0.14
42 | CUUGAGCAAUAUUACGGUCA | -1.65 ± 0.18 | -3.58 ± 0.46
43 | CUUGAGCAAUAUUACGUAUA | -3.5 ± 0.2 | -2.96 ± 0.28
44 | CUUGAGCAAUAUUACGUAUC | -3.35 ± 0.19 | -3.22 ± 0.33
45 | CUUGAGCAAUAUUACGUCUA | -2.76 ± 0.46 | 
46 | CUUUAGCAAUAUUACGAAGG | -1.23 ± 0.11 | -1.85 ± 0.21
47 | CUUUAGCAAUAUUACGACUA |  | -1.32 ± 0.42
48 | CUUUAGCAAUAUUACGACUG | -0.867 ± 0.094 | 0.418 ± 0.15
49 | CUUUAGCAAUAUUACGAGAG | -4.26 ± 0.34 | -2.03 ± 0.28
50 | CUUUAGCAAUAUUACGAUAA | -2.76 ± 0.15 | -2.64 ± 0.28
51 | CUUUAGCAAUAUUACGAUGA | -3.2 ± 0.25 | -2.01 ± 0.18
52 | CUUUAGCAAUAUUACGAUGC | -2.95 ± 0.24 | 

Row | Sequence | self-splicing fitness (ln) (30 °C) | self-splicing fitness (ln) (37 °C)
53 | CUUUAGCAAUAUUACGCACU | -3.69 ± 0.44 | -1.83 ± 0.19
54 | CUUUAGCAAUAUUACGCCCA | -2.92 ± 0.48 | -1.54 ± 0.38
55 | CUUUAGCAAUAUUACGCUUG | -2.98 ± 0.16 | -2.32 ± 0.17
56 | CUUUAGCAAUAUUACGGCAU | -3.42 ± 0.39 | -2.9 ± 0.4
57 | CUUUAGCAAUAUUACGGCCC | -1.71 ± 0.47 | 
58 | CUUUAGCAAUAUUACGGCGG | -0.763 ± 0.093 | -0.528 ± 0.12
59 | CUUUAGCAAUAUUACGGCUC |  | -2.16 ± 0.46
60 | CUUUAGCAAUAUUACGGCUG | -1.48 ± 0.14 | -0.483 ± 0.14
61 | CUUUAGCAAUAUUACGGGAA | -2.28 ± 0.22 | -1.58 ± 0.3
62 | CUUUAGCAAUAUUACGGGCG | -0.935 ± 0.12 | 0.00294 ± 0.15
63 | CUUUAGCAAUAUUACGGGGA | -2.88 ± 0.19 | -1.38 ± 0.17
64 | CUUUAGCAAUAUUACGUACU | -2.22 ± 0.23 | -2.82 ± 0.34
65 | CUUUAGCAAUAUUACGUGCU |  | -2.59 ± 0.41
66 | CUUUAGCAAUAUUACGUUGG | -3.1 ± 0.24 | -1.86 ± 0.27
67 | GAAAAGCAAUAUUACGAAAA | -2.25 ± 0.22 | -2.42 ± 0.17
68 | GAAAAGCAAUAUUACGAACA | -0.893 ± 0.1 | 0.0828 ± 0.12
69 | GAAAAGCAAUAUUACGAACC | -0.664 ± 0.14 | -0.705 ± 0.18
70 | GAAAAGCAAUAUUACGACAA | -0.627 ± 0.084 | -0.496 ± 0.096
71 | GAAAAGCAAUAUUACGAGCC | -1.38 ± 0.19 | -0.409 ± 0.18
72 | GAAAAGCAAUAUUACGAGCG | -0.699 ± 0.14 | -0.579 ± 0.15
73 | GAAAAGCAAUAUUACGAGGA | -2.03 ± 0.15 | -1.78 ± 0.16
74 | GAAAAGCAAUAUUACGAGGG |  | -1.77 ± 0.25
75 | GAAAAGCAAUAUUACGAGUG | -1.08 ± 0.073 | -0.813 ± 0.094
76 | GAAAAGCAAUAUUACGAUCA | -0.39 ± 0.067 | -0.234 ± 0.072
77 | GAAAAGCAAUAUUACGAUGU | -1.07 ± 0.084 | -0.404 ± 0.096
78 | GAAAAGCAAUAUUACGCAUC | -3.17 ± 0.17 | -2.78 ± 0.18

Row | Sequence | self-splicing fitness (ln) (30 °C) | self-splicing fitness (ln) (37 °C)
79 | GAAAAGCAAUAUUACGCCAA | -2.24 ± 0.12 | -1.36 ± 0.12
80 | GAAAAGCAAUAUUACGCCUU | -0.813 ± 0.11 | -0.558 ± 0.13
81 | GAAAAGCAAUAUUACGCUAA | -2.24 ± 0.16 | -1.1 ± 0.13
82 | GAAAAGCAAUAUUACGGCAU | -0.258 ± 0.066 | 0.329 ± 0.083
83 | GAAAAGCAAUAUUACGGUUU | -0.79 ± 0.057 | -0.332 ± 0.076
84 | GAAAAGCAAUAUUACGUAAU | -1.78 ± 0.066 | -1.47 ± 0.087
85 | GAAAAGCAAUAUUACGUACU | -0.864 ± 0.069 | -0.0522 ± 0.1
86 | GAAAAGCAAUAUUACGUCCU | -0.216 ± 0.089 | 0.514 ± 0.12
87 | GAAAAGCAAUAUUACGUGCC | -1.69 ± 0.19 | -0.25 ± 0.22
88 | GAAAAGCAAUAUUACGUGCG | -1.44 ± 0.095 | 0.264 ± 0.12
89 | GAAAAGCAAUAUUACGUUAU | -1.67 ± 0.07 | -0.868 ± 0.088
90 | GAAAAGCAAUAUUACGUUGU | -4.51 ± 0.2 | -2.22 ± 0.12
91 | GAACAGCAAUAUUACGAAAA | -1.77 ± 0.14 | -1.65 ± 0.12
92 | GAACAGCAAUAUUACGAAGG | -2.59 ± 0.17 | -3.26 ± 0.28
93 | GAACAGCAAUAUUACGAAUG | -2.42 ± 0.092 | -1.52 ± 0.096
94 | GAACAGCAAUAUUACGACCG | -1.25 ± 0.14 | -0.315 ± 0.17
95 | GAACAGCAAUAUUACGACGC | -0.0786 ± 0.067 | 0.151 ± 0.088
96 | GAACAGCAAUAUUACGAGAA | -3.45 ± 0.25 | -1.44 ± 0.17
97 | GAACAGCAAUAUUACGAUCG | -0.614 ± 0.085 | -0.564 ± 0.11
98 | GAACAGCAAUAUUACGAUCU | -1.33 ± 0.055 | -0.287 ± 0.078
99 | GAACAGCAAUAUUACGAUUU | -0.342 ± 0.05 | -0.476 ± 0.064
100 | GAACAGCAAUAUUACGCAAG | -3.31 ± 0.23 | -1.41 ± 0.17
101 | GAACAGCAAUAUUACGCCAA | -1.94 ± 0.42 | -2.06 ± 0.32
